Measured values as given in publication PMC3085397 (Immunity, 2011).

Biological target: the molecule itself
Experiment: SEC-MALS

B1: FOXP3 forkhead domain F373A (IPEX mutation) (domain or fragment, human)
chain: MRPPFTYATLIRWAILEAPEKQRTLNEIYHWFTRMFAAFRNHPATWKNAIRHNLSLHKCFVRVESEKGAVWTVDELEFRKKR
binding result: binds

B2: FOXP3 forkhead domain double mutant (W348Q and M370T) (domain or fragment, human)
chain: MRPPFTYATLIRQAILEAPEKQRTLNEIYHWFTRTFAFFRNHPATWKNAIRHNLSLHKCFVRVESEKGAVWTVDELEFRKKR
binding result: binds

B3: FOXP3 forkhead domain F371C (IPEX mutation) (domain or fragment, human)
chain: MRPPFTYATLIRWAILEAPEKQRTLNEIYHWFTRMCAFFRNHPATWKNAIRHNLSLHKCFVRVESEKGAVWTVDELEFRKKR
stoichiometry N: 2
